Test results from PMC9239094 (mBio, 2022).

Experiments:
Assay in all cases: cryo-EM structure; single-particle cryo-EM of the complex purified in LMNG (Strep-Tactin XT, then SEC); samples at A280 of 1 on Quantifoil Au R1.2/1.3 grids, blotted at 4°C; SthGldLM′ also with fluorinated octyl maltoside in buffer W (100 mM Tris-HCl pH 8.0, 150 mM NaCl, 1 mM EDTA) plus 0.01% LMNG
[1] = molecular target: Capnocytophaga canimorsus GldL (Capnocytophaga canimorsus)
[2] = molecular target: Schleiferia thermophila GldL (Schleiferia thermophila)
[3] = molecular target: Sphingobacterium wenxiniae GldL (Sphingobacterium wenxiniae)
[4] = molecular target: the molecule itself

Row | Molecule | stoichiometry N [4] | other results
1 | Capnocytophaga canimorsus GldL (natural protein) | – | stoichiometry N [1]: 5
2 | Schleiferia thermophila GldL (natural protein) | – | stoichiometry N [2]: 5
3 | Sphingobacterium wenxiniae GldL (natural protein) | – | stoichiometry N [3]: 5
4 | Sphingobacterium wenxiniae GldM′ (GldM truncated after the first periplasmic D1 domain, twin-Strep-tagged) (domain or fragment) MAGKKETPRQRMIGILYLVLLGLVALNVSDSILDAFKNLGNSLNTSTQNTQAGIDNMFLAFRETKLKENPERAQPILQKAEQAQALVQQLTSKVGELTTLLEGEGGGLDEETGDVKYRSSTDISARLMINEGRAKELREVITKTKAELLTLTNNEINLTLEAEDPAPRGGIKKTWEQANFGDGIPLTAAITALEKINADAKNAESAVVKHIFGKMDQAVVNLDQENLYFQGQFGSWSHPQFEKGGGSGGGSGGGSWSHPQFEK | 2 | –
5 | Capnocytophaga canimorsus GldM″ (GldM truncated after the D2 periplasmic domain, twin-Strep-tagged) (domain or fragment) MAGGNSPRQKMINLMYLVFISMLALNMGKEVLSAFGLMNEKLEASNEKANNANINAIQALEQNNAENPDQFAEAFQKSKKVKELSDSFYNYIEGIKGEVMNQVGEDKKDYQVMDKSDYLDQKFFVGDNYKPEGEEFVRQINDYKTQLVELLGGKEGTYGELVGKIDGNFNTNDVVDREGVTRKWLNYNFEGFPYIASVAKLSMMQSDIRATEQEVYAEMLKGQLKSQISMTNYTTLLEQSKGAYYQGESFDGAIVLGRKDASTRPNEVELMLDGRKLSASEFQIEDGKVKLKVGAGNAGEHKITGNLYFDQDGKRIAVPVSQVFSTIPKPENLYFQGQFGSWSHPQFEKGGGSGGGSGGGSWSHPQFEK | 2 | –
6 | Schleiferia thermophila GldM′ (GldM truncated after the first periplasmic D1 domain, twin-Strep-tagged) (domain or fragment) MAQGKLSPRQRMINMMYLVLTALLALNISKDILEALTKLNEDLSSTVMTVEKKLAFIYQAFDLAASENPEKAGVWRDKAYEVKKQADELHNYLEGIKNDLIEITGGIDEKTNRPKGLDNREKVANYLLVNEGGKAREIRARLEQFRDNMKQYVDEEAALINMLEALFNTEKKKVGDVMIEWENATFEHFPLAAVIPFITGIQANVRNAEADIISHLQRNIGKTDLKFTDENLYFQGQFGSWSHPQFEKGGGSGGGSGGGSWSHPQFEK | 2 | –
7 | Porphyromonas gingivalis PorM′ (PorM truncated after the first periplasmic D1 domain, twin-Strep-tagged) (domain or fragment) MAVGSNGNANRQKMINLMYLVFIAMMALNVSSEVLDGFDKVDKSLTSSIDGSDKRNNLVLSELNTAYRTNPEKVKVWYERSLVLQKEADSLCTFIDDLKLAIARESDGKDAKVNDIRRKDNLDASSVVMLNPINGKGSTLRKEVDKFRELVATLMTDKAKLKLIEQALNTESGTKGKSWESSLFENMPTVAAITLLTKLQSDVRYAQGEVLADLVKSVDVGDYRVNS | 2 | –
8 | Porphyromonas gingivalis PorL (natural protein) MGHYRRYKNILEMYLASHKGRRLLNIVYSWGAAVVILGALFKLLHLPMGNEMLFVGMITEFLVFFISGFEKPAMEYHWEEVFPELDSKNPMDRREMEQRREYLREKAKEAAAYAERPSSVRLASASLGTQPQEQPKPATPFQSQLTGILPEEQIQRLSEGIDKLAEAGEQLARIGRTAAAMTESYEQMQADQEGLRLNSQSYIQQMESLSRNISGLNTIYEIQLKGISSQIDTIDRINRGLAHIRDMYDNSVIDSSSFRNENERMARQLTQLNEVYARLLQALTTNVGLPGMPGNFGASNPSSSGSSPL | 5 | –
